Laboratory results as given in PMC4674680, “An in cellulo-derived structure of PAK4 in complex with its inhibitor Inka1” (Nature Communications, 2015).

Tests used:
PAK4cat = target: T1, PAK4cat (Homo sapiens, UniProt O96013); assay: In-vitro kinase assay, PAK4cat (phosphorylation of GST-Raf13); type: biochemical; details: in vitro
T1 construct: PAK1 (1–545) and PAK4 (286–591), respectively; 6His (N); made in house; host or cells: Escherichia coli BL21-CodonPlus(DE3)
Experimental: Purified PAK1 or PAK4 (50 nM in 25–50 μl) were incubated with 10 μM GST-Raf1S338 peptide in 10 μM ATP (2 μCi of γ32P ATP) of kinase buffer (25 mM HEPES, pH 7.3, 0.1% Triton X-100, 50 mM KCl, 10 mM MgCl2, 1 mM dithiothreitol) at 30 °C for 20 min. Samples were analysed by SDS–PAGE or adsorption of the GST substrate mix onto polyvinylidene difluoride membranes, followed by extensive washing to remove free γ32P-ATP. The synthetic peptides of 95% purity, as determined by HPLC and mass spectrometric analyses (GenScript), were soluble in aqueous PBS. Stock solutions (10 mM) were quantified via calculated extinction coefficients and absorbance measurements at 280 nm and stored at −80 °C. The diluted peptides were incubated at the indicated concentrations with the kinase on ice (10 min) before addition of γ32P ATP and subsequent incubation at 30 °C. The synthetic peptide array (Jerini Biotools) was phosphorylated in situ as described previously.

PAK4 = assay: Co-immunoprecipitation of HA-Inka1 by FLAG-tagged PAK4 constructs; type: binding, human; details: Fig. 1b; mammalian cells; PAK4* = RR48/49AE
Experimental: Transfection of cell culture and immunoprecipitation
Monkey COS-7 cells, human HEK293 and U2OS were grown in DMEM medium with 4,500 mg l^−1 glucose supplemented with 10% bovine calf serum (Hyclone). HeLa cells were grown in Eagle's MEM medium supplemented with L-glutamine, sodium bicarbonate, sodium pyruvate and 10% bovine calf serum. Transient transfections were performed with Lipofectamine 2000 according to recommended protocols. Typically, a total of 5 μg plasmid DNA was used per 60-mm dish; lysates were harvested 18 h later in ice-cold lysis buffer (0.5 ml; 25 mM HEPES, pH 7.3, 100 mM KCl, 5 mM MgCl2, 20 mM β-glycerophosphate, 5% glycerol, 0.5% Triton X-100, 5 mM dithiothreitol, 0.5 mM phenylmethyl sulfonyl fluoride, 1 mM Na3VO4 and 1 × protease inhibitor cocktail (Roche)). To test co-immunoprecipitation of proteins, the lysates were clarified by centrifugation (14,000g) and the clarified lysates were incubated while rolling (2 h) with 20 μl M2 anti-Flag Sepharose (Sigma-Aldrich, A2220). Rabbit anti-Flag (Sigma-Aldrich, F7425) or horseradish peroxidase-coupled anti-HA (Santa Cruz Biotechnology, sc-7392 HRP, 1 μg ml^−1) were used for western blot analysis.

T1 sequence (O96013 286-591): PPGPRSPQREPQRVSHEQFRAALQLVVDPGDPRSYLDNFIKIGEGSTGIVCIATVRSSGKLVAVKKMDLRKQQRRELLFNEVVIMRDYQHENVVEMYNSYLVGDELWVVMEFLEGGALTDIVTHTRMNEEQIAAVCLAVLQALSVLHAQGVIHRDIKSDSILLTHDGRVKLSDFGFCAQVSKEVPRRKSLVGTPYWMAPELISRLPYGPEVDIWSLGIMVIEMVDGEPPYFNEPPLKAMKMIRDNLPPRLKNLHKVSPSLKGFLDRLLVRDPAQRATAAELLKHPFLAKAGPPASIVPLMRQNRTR

Binding to activated PAK4* (mutated AID) versus wild-type PAK4, in words (PAK4): significantly better than wild-type PAK4
B1: Inka1: endogenous PAK4 inhibitor, 30-kDa neural crest enriched protein (protein, UniProt Q96EL1 1-287, looked up)
PAK4-inhibitor INKA1: MDMHSARLDSFLSQLRWELLCGRDTGSPSMPGPLQPTSQTGPDVQPSHQLRASGALEEDSVCCVEEEEEEEEEAVVTEDRDAALGGPREHALDWDSGFSEVSGSTWREEELPVSQRPAPSAQPLRRQCLSVSGLPMPSRAPVASVPPVHHPRPKSTPDACLEHWQGLEAEDWTAALLNRGRSRQPLVLGDNCFADLVHNWMELPETGSEGGDGGGHRARARPPQFLLGLSEQLRRRLARARRTAMAGKRLSCPPRPEPELPADVSRFAALMSCRSRQPIICNDVSYL
Affinity relative to AID or iBox-C, in words (PAK4cat): much higher affinity than the corresponding AID
